This is an account of results in patent US20140341809A1.

A word on the Kd: it is the free concentration of one partner at which half of the binding sites on the other are occupied at equilibrium, for simple one-to-one binding. The low end stands for higher affinity, the high end for lower affinity.

In experiment [1] the target is …/HLA-A2. Nature of the experiment: SPR, Biacore 3000, 25 C. A general note: Surface plasmon resonance follows binding to a sensor surface in real time, without labels.
The target in experiment [2] is …/HLA-A2. Nature of the experiment: SPR, against wild-type DMF5.
Experiment [3] has as its target …/HLA-A2. Nature of the experiment: SPR, Biacore 3000, 25 C (FIG. 2B shows a kinetic titration for this pair).

DMF5 TCR αD27W mutant came in with a Kd with …/HLA-A2 [1] of 0.68 µM. The substance also returned a ΔΔG in the experiment with …/HLA-A2 [2] of -1.6 kcal/mol.

For the substance “high-affinity DMF5 variant αD27Y/βL95W (TCR)”, the Kd in the experiment with …/HLA-A2 [3] turned out to be 0.024 µM; with …/HLA-A2 [1], 1.7 µM.
